Results on two molecules are retold here after US20200109212A1 (INTERVET, published 2020).

In experiment [1] the target is T1, canine PD-L1 extracellular domain-human IgG1 Fc fusion protein (canine).
T1 construct: Expressed in HEK 293 cells and purified on Protein A; also called canine PD-L1-hFc fusion protein; cPD-L1-hFc
The experiment can be described thus: cell-based ELISA (CELISA): mAb pre-incubated with cPD-L1-hFc, then added to CHO cells expressing canine PD-1; bound cPD-L1-hFc detected with anti-human Fc-HRP, OD 450-620 nm; blocked partner: canine PD-1. The procedure:
Ligand blockade was confirmed using this assay in conjunction with canine PD-L1/h Fec protein as follows: [0233] 1. Seed cPD-1 CHO cells in 96-well plates and grow the cells to 95-100% confluent. [0234] General guidelines for plating CHO cells, [0235] on day −3: […] (1×10⁵c/mL) [0236] −2: 2×10⁴ c/well ([…]) [0237] −1: 4×10⁴ c/well (4×10⁵ c/mL) [0238] 2. 3-fold dilute anti-cPDL1 mAbs in CHO media, starting at 30 μg/mL, 100 μL/well. Add cPD-L1-hFc to 4 μg/ml in CHO media, 100 μL/well, co-incubate in a dilution plate at 37° C., 5% CO₂ with shaking for 60 min. [0239] 3. Aspirate cell culture media from the cell coated plates, wash the plates 3×PBS+0.05% Tween20 and 1×CHO media. [0240] 4. Add the co-incubated cPD-L1 mAbs/PD-L1 Fc from the dilution plate to the cell coated plate. 100 uL/well. Incubate at 37° C., 5% CO₂ with shaking for 60 min. [0241] 5. Wash the plates 6×PBS+0.05% Tween 20 (using manual wash protocol). [0242] 6. Add Anti-Human Fc-HRP (Calbiochem) (1:2500) in CHO media, 100 ul/well, incubate 30-60 min at 37° C./5% CO₂. [0243] 7. Wash the plates 5×PBS+0.05% Tween20 (using manual wash protocol). [0244] 8. Add 100 μl/well TMB mircowell substrate. Incubate at room temp for 10 minutes. Use one step substrate from Pierce. [0245] 9. Stop with 100 μl/well 1.5M Phosphoric acid. [0246] 10. Measure A450-A620 on the ELISA reader.
Background: In an ELISA, binding on a coated surface is turned into a signal by an enzyme label.

The target of experiment [2] is T1, canine PD-L1 extracellular domain-human …. The experiment in a line: ELISA, plate coated with canine PD-L1-hFc, two-fold dilutions of mAb, detection with HRP goat anti-mouse IgG, OD 650/490. As to the method: Hybridoma cells in the cell chamber were expanded to approximately 2.5×10⁷ cells/mL over 3-7 days. Then, 10 mL of cell suspension was harvested from the cell chamber and replaced with fresh media to allow for re-expansion of cells and subsequent harvests. This procedure was repeated as necessary to obtain adequate amounts of mAb from each hybridoma clone. Harvested cell suspensions were centrifuged and the supernatants were filtered through 0.2 micron filter membranes. For antibody purification, each clone's supernatant was purified using a Protein G Sepharose 4 Fast flow 5 mL column (GE Healthcare) by gravity flow. After washing with Tris-EDTA (TE) buffer pH 8.0, bound antibodies were eluted using 0.1 M glycine buffer, pH 2.7, followed by pH neutralization using 1 M Tris, pH 8.0. Antibodies were concentrated and buffer exchanged into phosphate-buffered saline (PBS) using Centriprep YM-10.10 kDa NMWL centrifugal filter units (Millipore). Antibody concentrations were quantified using spectrophotometry. […] The color reaction is allowed to develop for 5-20 minutes at 37° C. prior to measuring absorbance at 650 nm.

T1 sequence (chain, as listed by the source limits assumed): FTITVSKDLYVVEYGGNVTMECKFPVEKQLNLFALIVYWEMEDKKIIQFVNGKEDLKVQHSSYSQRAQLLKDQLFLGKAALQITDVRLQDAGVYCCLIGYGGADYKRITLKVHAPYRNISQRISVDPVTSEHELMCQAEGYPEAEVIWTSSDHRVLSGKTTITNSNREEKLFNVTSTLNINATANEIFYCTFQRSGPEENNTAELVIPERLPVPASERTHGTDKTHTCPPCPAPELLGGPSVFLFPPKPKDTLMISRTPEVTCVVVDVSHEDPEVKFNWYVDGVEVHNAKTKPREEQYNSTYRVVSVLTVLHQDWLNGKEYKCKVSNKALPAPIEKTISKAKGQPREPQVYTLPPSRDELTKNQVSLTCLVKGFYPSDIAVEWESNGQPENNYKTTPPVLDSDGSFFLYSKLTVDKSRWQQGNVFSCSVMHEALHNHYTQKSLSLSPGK

B1: mouse anti-canine PD-L1 monoclonal antibody 4F9 (antibody, V domains shown)
VH: EVQLVESGGGLVKPGGSLKLSCAASGFTFSSYAMSWVRQTPDKRLEWVATISDGGSYTHYPDNLMGRFTISRDNAKNNLYLQMSHLKSDDTAMYYCARESYDGYYVANWGQGTLVTVSA
VL: DIVLTQSPATLSVNPGDSVSLSCRASQSISNNLHWYQQKSHESPRLLIKYASQSISGIPSRFSGSGSGTDFTLSINSVETEDFGMYFCQQSNSWPQTFGGGTKLEIK
notes: also called mAb 4F9
Consider B1, for which, in experiment [1], the “IC50 (read off the curve)” value was approximately 20 nM.

B2: mouse anti-canine PD-L1 monoclonal antibody 5F12 (antibody, V domains shown)
VH: QVQLQQSGPELVKPGASVKISCKASGYTFTDYYMNWVKQRPGQGLEWIGWIFPGSGATYYNERFMGKATLTVDKSSNTAYMLFSSLTSEDSAVYFCLRSDWDVGDFWGQGTTLTVSS
VL: DIVMTQAAFSNPVTLGTSASISCRSSRSLLHTNGITYLSWFLQKPGQSPQLLIYQMSNLASGVPDRFSSSGSGTDFTLRISRVEAEDVGIYYCAQTLGLPRTFGGGTKLEIK
notes: also called mAb 5F12; Anti-PDL-1 5F12
B2: in experiment [2], the binding result was “binds”.
